Experiments:
[1] = molecular target: YY1 cellular transcription factor, endogenous in LCLs (UniProt P25490); assay: co-immunoprecipitation (YY1 IP, EBNA-LP blot, band signal quantified); conditions: 50% IP lanes; trans-complemented LPKO LCLs; parent: 1
[2] = molecular target: YY1 cellular transcription factor, endogenous in LCLs (UniProt P25490); assay: co-immunoprecipitation (FLAG-EBNA-LP IP, YY1 blot, band signal quantified); conditions: 50% IP lanes; LPKO LCLs (Donor 4) trans-complemented; parent: 1.0

UniProt P25490, sequence (P25490 whole entry): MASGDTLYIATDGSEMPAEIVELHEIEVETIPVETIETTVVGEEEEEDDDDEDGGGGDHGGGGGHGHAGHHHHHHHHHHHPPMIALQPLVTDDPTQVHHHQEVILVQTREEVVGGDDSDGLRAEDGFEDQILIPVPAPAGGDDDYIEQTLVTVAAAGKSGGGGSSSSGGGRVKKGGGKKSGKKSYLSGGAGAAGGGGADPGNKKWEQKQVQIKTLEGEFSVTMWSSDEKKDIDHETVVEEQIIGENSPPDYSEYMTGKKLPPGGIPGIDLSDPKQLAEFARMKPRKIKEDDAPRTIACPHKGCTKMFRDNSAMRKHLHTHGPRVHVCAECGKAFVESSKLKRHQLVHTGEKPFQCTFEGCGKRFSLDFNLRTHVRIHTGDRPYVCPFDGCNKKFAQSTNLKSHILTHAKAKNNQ

“FLAG-EBNA-LP wild type (B95-8) with four W domains, from the trans-complementation vector W:L25A; W:L28A; W:L29A (in each of the four W domains); Y:L13A; Y:L17A; Y:L18A” gave a response [1] of 0 and a response [2] of 0.01.

Reference: article PMC11318927
